For this assay, the target named is T1, 6×His tag human Pear1 extracellular segment (Leu-21-Ser; 754) (human, UniProt Q5VY43 21-754).
T1 construct: range 21-754; The ELISA and the Biacore test only say 'human Pear1 ECD protein' / 'extracellular segment'; also called human Pear1 ECD protein; human Pear1ECD protein; not shown: 6×His tag
T1 sequence (looked up): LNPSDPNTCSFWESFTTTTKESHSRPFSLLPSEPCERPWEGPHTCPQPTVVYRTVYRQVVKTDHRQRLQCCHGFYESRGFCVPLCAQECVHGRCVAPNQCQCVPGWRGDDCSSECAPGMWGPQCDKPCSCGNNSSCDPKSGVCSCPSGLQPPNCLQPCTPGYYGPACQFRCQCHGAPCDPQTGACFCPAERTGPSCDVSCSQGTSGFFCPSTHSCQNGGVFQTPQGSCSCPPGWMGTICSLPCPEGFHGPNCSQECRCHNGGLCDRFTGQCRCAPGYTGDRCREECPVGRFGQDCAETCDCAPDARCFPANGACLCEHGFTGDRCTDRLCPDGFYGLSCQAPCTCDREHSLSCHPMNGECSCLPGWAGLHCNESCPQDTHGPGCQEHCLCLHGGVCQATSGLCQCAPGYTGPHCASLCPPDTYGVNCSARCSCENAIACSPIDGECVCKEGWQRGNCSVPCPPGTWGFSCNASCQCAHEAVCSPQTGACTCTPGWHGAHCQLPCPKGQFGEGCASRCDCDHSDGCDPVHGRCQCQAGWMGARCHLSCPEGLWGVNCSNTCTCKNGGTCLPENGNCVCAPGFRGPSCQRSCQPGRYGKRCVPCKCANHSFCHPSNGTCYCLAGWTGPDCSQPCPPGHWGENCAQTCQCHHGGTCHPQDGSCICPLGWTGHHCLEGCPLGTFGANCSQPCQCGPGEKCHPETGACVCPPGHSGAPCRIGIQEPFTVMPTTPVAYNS
The assay can be described thus: ELISA, plate coated with human Pear1 ECD. How it is done: FIG. 6 The comparison of the affinities of the anti-human Pear1 antibodies to human Pear1. The ELISA plate was coated with human Pear1 ECD proteins and the reactions were conducted between antibodies at different concentrations (2000 ng/mL, 1000 ng/mL, 500 ng/mL, 250 ng/mL, 125 ng/mL, 62.5 ng/mL, 31.25 ng/mL, 15.625 ng/mL, 7.8125 ng/mL, 3.90625 ng/mL, 1.953125 ng/mL, 0.9765625 ng/mL) and the human Pear1 ECD proteins. OD value was measured to obtain the EC 50 value of the antigen-antibody combination
8.2.1 Comparison of antigen binding ability of these antibodies.
(In an ELISA, binding on a coated surface is turned into a signal by an enzyme label.)

B1: LF16 (antibody, V domains shown)
VH: EVQLQQSGPELVKPGASMKISCKASGYAFTGYTMNWVKQSHGKNLDWIGVINGYNGGTSYNQKFKGKATLTVDKSSSTAYMELLSLTSEDSAIYYCARGGPTTGFVYWGQGTLVTVSA
VL: DIQMTQTSSSFSVSLGDRVTITCKASEDIYNRLAWYQQKPGNAPRLLISGATSLETGVPSRFSGSGSGKDYTLSITSLQTEDVATYYCQQYWSTPTFGAGTKLELK
notes: Mouse monoclonal antibody from hybridoma
For B1, the EC50 came out at 0.0547 µg/mL.

One may read the EC50 as the concentration giving half of the maximal effect.

The values are drawn from US20230088277A1 (SHANGHAI SYNVIDA BIOTECHNOLOGY, published 2023).
